From US11795460B2, “Compositions and methods for TTR gene editing and treating ATTR amyloidosis” (Intellia Therapeutics, Inc., priority 2017, dated 2023)
Strand notation (5' to 3'): a small letter for the sugar, then the base; units joined by * are phosphorothioate-linked, units joined directly phosphodiester-linked; [ ] holds rarer units or linkages, { } end groups; capitals alone tell only the bases. m = 2'-O-methyl; r = 2'-OH (RNA)

B1: G000568: TTR sgRNA modified sequence, Human, SEQ ID No. 110; guide sequence of CR003391 (nucleic acid)
guide: mG*mG*mC*rUrGrUrCrGrUrCrArCrCrArArUrCrCrCrArGrUrUrUrUrArGrAmGmCmUmAmGmAmAmAmUmAmGmCrArArGrUrUrArArArArUrArArGrGrCrUrArGrUrCrCrGrUrUrArUrCrAmAmCmUmUmGmAmAmAmAmAmGmUmGmGmCmAmCmCmGmAmGmUmCmGmGmUmGmCmU*mU*mU*mU
B2: G000570: TTR sgRNA modified sequence, Human, SEQ ID No. 111; guide sequence of CR003347 (nucleic acid)
guide: mC*mA*mU*rUrGrArUrGrGrCrArGrGrArCrUrGrCrCrUrGrUrUrUrUrArGrAmGmCmUmAmGmAmAmAmUmAmGmCrArArGrUrUrArArArArUrArArGrGrCrUrArGrUrCrCrGrUrUrArUrCrAmAmCmUmUmGmAmAmAmAmAmGmUmGmGmCmAmCmCmGmAmGmUmCmGmGmUmGmCmU*mU*mU*mU
B3: G000567: TTR sgRNA modified sequence, Human, SEQ ID No. 109; guide sequence of CR003352 (nucleic acid)
guide: mG*mA*mA*rArGrGrCrUrGrCrUrGrArUrGrArCrArCrCrGrUrUrUrUrArGrAmGmCmUmAmGmAmAmAmUmAmGmCrArArGrUrUrArArArArUrArArGrGrCrUrArGrUrCrCrGrUrUrArUrCrAmAmCmUmUmGmAmAmAmAmAmGmUmGmGmCmAmCmCmGmAmGmUmCmGmGmUmGmCmU*mU*mU*mU
B4: G000571: TTR sgRNA modified sequence, Human, SEQ ID No. 112; guide sequence of CR005301 (nucleic acid)
guide: mG*mU*mC*rArCrArGrArArArCrArCrUrCrArCrCrGrUrGrUrUrUrUrArGrAmGmCmUmAmGmAmAmAmUmAmGmCrArArGrUrUrArArArArUrArArGrGrCrUrArGrUrCrCrGrUrUrArUrCrAmAmCmUmUmGmAmAmAmAmAmGmUmGmGmCmAmCmCmGmAmGmUmCmGmGmUmGmCmU*mU*mU*mU
B5: G000497: TTR sgRNA modified sequence, Human, SEQ ID No. 104; guide sequence of CR003335 (nucleic acid)
guide: mC*mU*mG*rCrUrCrCrUrCrCrUrCrUrGrCrCrUrUrGrCrGrUrUrUrUrArGrAmGmCmUmAmGmAmAmAmUmAmGmCrArArGrUrUrArArArArUrArArGrGrCrUrArGrUrCrCrGrUrUrArUrCrAmAmCmUmUmGmAmAmAmAmAmGmUmGmGmCmAmCmCmGmAmGmUmCmGmGmUmGmCmU*mU*mU*mU
B6: G000496: TTR sgRNA modified sequence, Human, SEQ ID No. 103; guide sequence of CR005304 (nucleic acid)
guide: mG*mG*mC*rCrGrUrGrCrArUrGrUrGrUrUrCrArGrArArGrUrUrUrUrArGrAmGmCmUmAmGmAmAmAmUmAmGmCrArArGrUrUrArArArArUrArArGrGrCrUrArGrUrCrCrGrUrUrArUrCrAmAmCmUmUmGmAmAmAmAmAmGmUmGmGmCmAmCmCmGmAmGmUmCmGmGmUmGmCmU*mU*mU*mU
B7: G000498: TTR sgRNA modified sequence, Human, SEQ ID No. 105; guide sequence of CR003359 (nucleic acid)
guide: mA*mG*mU*rGrArGrUrCrUrGrGrArGrArGrCrUrGrCrArGrUrUrUrUrArGrAmGmCmUmAmGmAmAmAmUmAmGmCrArArGrUrUrArArArArUrArArGrGrCrUrArGrUrCrCrGrUrUrArUrCrAmAmCmUmUmGmAmAmAmAmAmGmUmGmGmCmAmCmCmGmAmGmUmCmGmGmUmGmCmU*mU*mU*mU
B8: G000487: TTR sgRNA modified sequence, Human, SEQ ID No. 94; guide sequence of CR003357 (nucleic acid)
guide: mU*mU*mC*rUrUrUrGrGrCrArArCrUrUrArCrCrCrArGrGrUrUrUrUrArGrAmGmCmUmAmGmAmAmAmUmAmGmCrArArGrUrUrArArArArUrArArGrGrCrUrArGrUrCrCrGrUrUrArUrCrAmAmCmUmUmGmAmAmAmAmAmGmUmGmGmCmAmCmCmGmAmGmUmCmGmGmUmGmCmU*mU*mU*mU
B9: G000492: TTR sgRNA modified sequence, Human, SEQ ID No. 99; guide sequence of CR003342 (nucleic acid)
guide: mC*mU*mU*rCrUrCrUrArCrArCrCrCrArGrGrGrCrArCrGrUrUrUrUrArGrAmGmCmUmAmGmAmAmAmUmAmGmCrArArGrUrUrArArArArUrArArGrGrCrUrArGrUrCrCrGrUrUrArUrCrAmAmCmUmUmGmAmAmAmAmAmGmUmGmGmCmAmCmCmGmAmGmUmCmGmGmUmGmCmU*mU*mU*mU
B10: G000495: TTR sgRNA modified sequence, Human, SEQ ID No. 102; guide sequence of CR003343 (nucleic acid)
guide: mC*mA*mG*rArGrGrArCrArCrUrUrGrGrArUrUrCrArCrGrUrUrUrUrArGrAmGmCmUmAmGmAmAmAmUmAmGmCrArArGrUrUrArArArArUrArArGrGrCrUrArGrUrCrCrGrUrUrArUrCrAmAmCmUmUmGmAmAmAmAmAmGmUmGmGmCmAmCmCmGmAmGmUmCmGmGmUmGmCmU*mU*mU*mU
B11: G000491: TTR sgRNA modified sequence, Human, SEQ ID No. 98; guide sequence of CR003338 (nucleic acid)
guide: mA*mU*mA*rCrCrArGrUrCrCrArGrCrArArGrGrCrArGrGrUrUrUrUrArGrAmGmCmUmAmGmAmAmAmUmAmGmCrArArGrUrUrArArArArUrArArGrGrCrUrArGrUrCrCrGrUrUrArUrCrAmAmCmUmUmGmAmAmAmAmAmGmUmGmGmCmAmCmCmGmAmGmUmCmGmGmUmGmCmU*mU*mU*mU
B12: G000485: TTR sgRNA modified sequence, Human, SEQ ID No. 92; guide sequence of CR003336 (nucleic acid)
guide: mC*mC*mU*rCrCrUrCrUrGrCrCrUrUrGrCrUrGrGrArCrGrUrUrUrUrArGrAmGmCmUmAmGmAmAmAmUmAmGmCrArArGrUrUrArArArArUrArArGrGrCrUrArGrUrCrCrGrUrUrArUrCrAmAmCmUmUmGmAmAmAmAmAmGmUmGmGmCmAmCmCmGmAmGmUmCmGmGmUmGmCmU*mU*mU*mU
B13: G000501: TTR sgRNA modified sequence, Human, SEQ ID No. 108; guide sequence of CR005300 (nucleic acid)
guide: mU*mC*mA*rCrArGrArArArCrArCrUrCrArCrCrGrUrArGrUrUrUrUrArGrAmGmCmUmAmGmAmAmAmUmAmGmCrArArGrUrUrArArArArUrArArGrGrCrUrArGrUrCrCrGrUrUrArUrCrAmAmCmUmUmGmAmAmAmAmAmGmUmGmGmCmAmCmCmGmAmGmUmCmGmGmUmGmCmU*mU*mU*mU

system: TTR; assay: EC50 and maximum editing in primary cyno hepatocytes treated with LNP formulated U-depleted Spy Cas9 mRNA and sgRNAs (Tables 20, 22); type: cell-based, cynomolgus monkey; parameters: key: % of sequence reads with indels or substitutions over total reads; settings: Table 20, LNP with U-depleted Spy Cas9 mRNA and human specific sgRNAs, dose response
Method: (§1) Primary liver hepatocytes. Primary human liver hepatocytes (PHH) and primary cynomolgus liver hepatocytes (PCH) (Gibco) were cultured per the manufacturer's protocol (Invitrogen, protocol 11.28.2012). In brief, the cells were thawed and resuspended in hepatocyte thawing medium with supplements (Gibco, Cat. CM7000) followed by centrifugation at 100 g for 10 minutes for human and 80 g for 4 minutes for cyno. The supernatant was discarded and the pelleted cells resuspended in hepatocyte plating medium plus supplement pack (Invitrogen, Cat. A1217601 and CM3000). Cells were counted and plated on Bio-coat collagen I coated 96-well plates (ThermoFisher, Cat. 877272) at a density of 33,000 cells/well for human or 60,000 cells/well for cyno (or 65,000 cells/well when assaying effects on TTR protein, described further below). Plated cells were allowed to settle and adhere for 6 or 24 hours in a tissue culture incubator at 37° C. and 5% CO2 atmosphere. After incubation cells were checked for monolayer formation and media was replaced with hepatocyte culture medium with serum-free supplement pack (Invitrogen, Cat. A1217601 and CM4000).
(§2) For LNPs prepared using the cross-flow technique, the LNPs were formed by impinging jet mixing of the lipid in ethanol with two volumes of RNA solutions and one volume of water. The lipid in ethanol is mixed through a mixing cross with the two volumes of RNA solution. A fourth stream of water is mixed with the outlet stream of the cross through an inline tee. (See WO2016010840 FIG. 2.) The LNPs were held for 1 hour at room temperature, and further diluted with water (approximately 1:1 v/v). Diluted LNPs were concentrated using tangential flow filtration on a flat sheet cartridge (Sartorius, 100 kD MWCO) and then buffer exchanged by diafiltration into 50 mM Tris, 45 mM NaCl, 5% (w/v) sucrose, pH 7.5 (TSS). Alternatively, the final buffer exchange into TSS was completed with PD-10 desalting columns (GE). If required, formulations were concentrated by centrifugation with Amicon 100 kDa centrifugal filters (Millipore). The resulting mixture was then filtered using a 0.2 μm sterile filter. The final LNP was stored at 4° C. or −80° C. until further use.
(§3) To quantitatively determine the efficiency of editing at the target location in the genome, sequencing was utilized to identify the presence of insertions and deletions introduced by gene editing.
(§4) Primers were designed around the target site within the gene of interest (e.g. TTR), and the genomic area of interest was amplified.
(§5) Additional PCR was performed per the manufacturer's protocols (Illumina) to add chemistry for sequencing. The amplicons were sequenced on an Illumina MiSeq instrument. The reads were aligned to a reference genome (e.g., the human reference genome (hg38), the cynomologus reference genome (mf5), the rat reference genome (rn6), or the mouse reference genome (mm10)) after eliminating those having low quality scores. The resulting files containing the reads were mapped to the reference genome (BAM files), where reads that overlapped the target region of interest were selected and the number of wild type reads versus the number of reads which contain an insertion, substitution, or deletion was calculated.
(§6) The editing percentage (e.g., the “editing efficiency” or “percent editing” or “indel frequency”) is defined as the total number of sequence reads with insertions/deletions (“indels”) or substitutions over the total number of sequence reads, including wild type.
(§7) Lipid nanoparticle formulations of modified sgRNAs targeting human TTR and the cyno matched sgRNA sequences were tested on primary human hepatocytes and primary cyno hepatocytes in a dose response curve. Primary human and cyno hepatocytes were plated as described in Example 1. Both cell lines were incubated at 37° C., 5% CO2 for 24 hours prior to treatment with LNPs. […]

Row | Molecule | Max Editing
1 | B1 | 87.93
2 | B2 | 96.73
3 | B3 | 97.06
4 | B4 | 97.03

system: TTR; assay: TTR editing in primary human hepatocytes transfected with Spy Cas9 protein and sgRNAs (Table 12); type: cell-based; settings: primary human hepatocytes transfected with Spy Cas9 protein (RNP) and sgRNAs
Method: as §1
Ribonucleotide formation was performed prior to electroporation or transfection of Spy Cas9 protein loaded with guide RNAs (RNPs) onto cells. For dual guide (dgRNAs), individual crRNA and trRNA was pre-annealed by mixing equivalent amounts of reagent and incubating at 95° C. for 2 min and cooling to room temperature. Single guide (sgRNAs) were boiled at 95° C. for 2 min and cooling to room temperature. The boiled dgRNA or sgRNA was incubated with Spy Cas9 protein in Optimem for 10 minutes at room temperature to form a ribonucleoprotein (RNP) complex.
For RNP lipoplex transfections, cells were transfected with Lipofectamine RNAiMAX (ThermoFisher, Cat. 13778150) per the manufacturer's protocol. Cells were transfected with an RNP containing Spy Cas9 (10 nM), individual guide (10 nM), tracer RNA (10 nM), Lipofectamine RNAiMAX (1.0 μL/well) and OptiMem. RNP formation was performed as described above.
Transfected cells were harvested post-transfection at 24, 48, or 72 hours. The genomic DNA was extracted from each well of a 96-well plate using 50 μL/well BuccalAmp DNA Extraction solution (Epicentre, Cat. QE09050) per manufacturer's protocol. All DNA samples were subjected to PCR and subsequent NGS analyses, as described herein.
as §3, §4, §5, §6
Guides in modified sgRNA format targeting human and/or cyno TTR were delivered to primary human hepatocytes and primary cyno hepatocytes as described in Example 1. […]

Row | Molecule | Avg % Deletion | Avg % Edit | Avg % Insert
5 | B5 | 8.73% | 59.67% | 51.10%
6 | B6 | 27.67% | 72.33% | 44.73%
7 | B7 | 12.70% | 72.80% | 60.17%
8 | B8 | 2.07% | 67.30% | 65.27%
9 | B9 | 3.13% | 60.97% | 57.90%
10 | B10 | 5.37% | 50.80% | 45.80%
11 | B11 | 4.33% | 74.30% | 70.27%
12 | B12 | 3.13% | 56.07% | 53.07%
13 | B13 | 6.00% | 60.93% | 55.13%

system: TTR; assay: EC50 and maximum editing in primary human hepatocytes treated with LNP formulated U-depleted Spy Cas9 mRNA and sgRNAs (Tables 19, 21); type: cell-based; parameters: key: % of sequence reads with indels or substitutions over total reads; settings: Table 19, LNP with U-depleted Spy Cas9 mRNA and human specific sgRNAs, dose response
Method: as §1, §2, §3, §4, §5, §6, §7

Row | Molecule | Max Editing
14 | B1 | 95.72
15 | B2 | 98.22
16 | B4 | 71.28
